In PMC7343212, “Lactoferrin-Hexon Interactions Mediate CAR-Independent Adenovirus Infection of Human Respiratory Cells” (Journal of Virology, 2020) one finds Kd, koff and kon data, which are given here for two substances.

pKd: −log10 of the molar value.

Common to all, as to test: SPR
Background: In SPR one partner is held on a chip, and binding of the other changes the refractive index at the surface.

The target in assay [1] is HAdV-A31 hexon (human adenovirus A31 (strain 1315/63)).
For assay [2], the target named is HAdV-B35 hexon (human adenovirus B35 (strain Holden)).
Assay [3] deals with HAdV-C5 hexon (human adenovirus C5 (strain Ad75)) (UniProt P04133).

As for “human lactoferricin 1-49 (hLfcin1-49) (peptide)”, the pKd (usually the Kd on a negative log10 scale, so that one unit is a factor of ten) in assay [1] is 3.73; in assay [2] it was 4.66; in assay [3] it was 6.14.
As for “human lactoferrin (hLF) (natural protein)”, in assay [1], the pKd is 6.08; the koff – broadly, the rate constant with which the complex falls apart – was 0.0101 s⁻¹; the kon (usually the second-order rate constant of association) came out at 12000 M⁻¹ s⁻¹. Moreover, in assay [2], the pKd was 6.82, the koff worked out at 0.00354 s⁻¹ and the kon came to 25000 M⁻¹ s⁻¹. In assay [3], this substance showed a negative-log Kd (pKd) of 7.54, an off-rate constant (koff) of 0.00154 s⁻¹ and a kon of 53000 M⁻¹ s⁻¹.
